Reference: patent US20050089938A1, “Use of peptide fragments of the calcium channel a-1 subunit, optionally comprising mutations, for screening molecules of therapeutic interest” (priority 2001, published 2005)

How the values were obtained:
[1] = target: T1, Cav2.1 channel (Oryctolagus cuniculus, UniProt P27884); assay: Inactivation kinetics of the Cav2.1 channel expressed in Xenopus oocytes, two-electrode voltage-clamp Ba2+ currents; type: cell-based, rabbit
T1 construct: expressed in transfected cells; host or cells: Xenopus laevis oocytes (cRNA injection)
T1 sequence (P27884 whole entry): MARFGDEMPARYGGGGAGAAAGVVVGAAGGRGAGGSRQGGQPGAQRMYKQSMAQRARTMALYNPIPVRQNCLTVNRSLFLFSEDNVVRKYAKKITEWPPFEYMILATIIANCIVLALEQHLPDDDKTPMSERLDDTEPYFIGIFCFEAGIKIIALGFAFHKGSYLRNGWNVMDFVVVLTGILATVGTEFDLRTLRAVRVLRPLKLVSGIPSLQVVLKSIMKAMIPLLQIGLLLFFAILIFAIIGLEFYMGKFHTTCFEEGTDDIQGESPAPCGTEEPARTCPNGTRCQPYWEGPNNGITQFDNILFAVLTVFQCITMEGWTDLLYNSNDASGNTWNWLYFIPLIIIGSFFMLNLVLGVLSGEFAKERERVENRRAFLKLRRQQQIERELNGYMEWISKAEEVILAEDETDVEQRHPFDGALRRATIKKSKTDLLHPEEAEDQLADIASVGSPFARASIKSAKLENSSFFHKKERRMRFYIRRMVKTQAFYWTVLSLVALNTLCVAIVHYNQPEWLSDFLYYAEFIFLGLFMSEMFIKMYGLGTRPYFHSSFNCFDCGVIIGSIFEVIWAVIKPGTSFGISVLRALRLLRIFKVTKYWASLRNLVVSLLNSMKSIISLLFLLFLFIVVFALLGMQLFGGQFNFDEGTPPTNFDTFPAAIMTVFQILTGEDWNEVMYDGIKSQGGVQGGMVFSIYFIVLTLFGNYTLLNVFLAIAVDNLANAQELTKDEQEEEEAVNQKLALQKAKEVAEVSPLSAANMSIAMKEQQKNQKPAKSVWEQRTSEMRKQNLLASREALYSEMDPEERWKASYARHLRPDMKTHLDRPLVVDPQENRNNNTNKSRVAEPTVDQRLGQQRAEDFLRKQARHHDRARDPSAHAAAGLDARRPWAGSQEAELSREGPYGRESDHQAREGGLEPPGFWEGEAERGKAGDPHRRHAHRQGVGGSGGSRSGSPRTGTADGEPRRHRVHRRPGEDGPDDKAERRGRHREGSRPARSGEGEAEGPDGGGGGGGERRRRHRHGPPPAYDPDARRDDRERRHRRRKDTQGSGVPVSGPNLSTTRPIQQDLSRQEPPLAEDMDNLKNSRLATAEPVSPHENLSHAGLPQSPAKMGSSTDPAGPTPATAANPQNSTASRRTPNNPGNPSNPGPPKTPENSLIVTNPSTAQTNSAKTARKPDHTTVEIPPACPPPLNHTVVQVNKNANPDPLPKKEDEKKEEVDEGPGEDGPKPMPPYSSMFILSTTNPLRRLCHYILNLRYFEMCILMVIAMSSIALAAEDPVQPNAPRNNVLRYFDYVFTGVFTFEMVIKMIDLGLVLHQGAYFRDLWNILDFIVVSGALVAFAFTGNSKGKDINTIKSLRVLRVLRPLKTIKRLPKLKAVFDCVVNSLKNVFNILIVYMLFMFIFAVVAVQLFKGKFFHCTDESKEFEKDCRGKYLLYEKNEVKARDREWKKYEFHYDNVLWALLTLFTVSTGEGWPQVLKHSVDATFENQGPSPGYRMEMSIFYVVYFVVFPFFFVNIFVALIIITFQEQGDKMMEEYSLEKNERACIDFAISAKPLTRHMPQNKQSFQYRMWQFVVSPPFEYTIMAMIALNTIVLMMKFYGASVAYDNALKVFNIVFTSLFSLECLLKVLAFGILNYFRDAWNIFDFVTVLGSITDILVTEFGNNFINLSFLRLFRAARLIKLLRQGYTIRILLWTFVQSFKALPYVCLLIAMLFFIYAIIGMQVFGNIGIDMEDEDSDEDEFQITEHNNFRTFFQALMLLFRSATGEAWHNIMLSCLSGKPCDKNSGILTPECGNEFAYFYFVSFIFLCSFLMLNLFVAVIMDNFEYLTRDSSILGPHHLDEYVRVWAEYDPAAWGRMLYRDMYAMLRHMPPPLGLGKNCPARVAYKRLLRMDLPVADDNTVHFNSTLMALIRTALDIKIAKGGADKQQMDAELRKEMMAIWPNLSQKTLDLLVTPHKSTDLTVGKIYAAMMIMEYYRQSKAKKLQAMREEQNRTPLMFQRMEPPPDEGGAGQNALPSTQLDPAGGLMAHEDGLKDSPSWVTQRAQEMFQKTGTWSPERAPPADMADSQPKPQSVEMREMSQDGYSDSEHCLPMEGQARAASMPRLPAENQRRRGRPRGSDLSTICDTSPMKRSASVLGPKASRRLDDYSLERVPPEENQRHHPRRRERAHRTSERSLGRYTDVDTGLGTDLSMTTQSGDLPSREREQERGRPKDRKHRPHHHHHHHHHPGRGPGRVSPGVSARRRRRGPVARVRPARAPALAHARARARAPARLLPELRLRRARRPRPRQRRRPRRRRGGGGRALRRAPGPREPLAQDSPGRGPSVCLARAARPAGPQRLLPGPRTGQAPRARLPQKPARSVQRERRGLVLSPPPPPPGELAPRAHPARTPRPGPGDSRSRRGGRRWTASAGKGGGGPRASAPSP
Method: Xenopus oocytes are removed at Stages V and VI from ovaries of Xenopus laevis frogs from South Africa and maintained in standard saline solution (Barth's medium). The cells are treated with collagenase type IA (2 mg/ml) for two hours and the follicular membranes are eliminated manually. The oocytes are maintained in DNOM medium (defined nutrient oocyte medium) for 2 days before injection of cRNA coding for the Cav2.1 channel. The injection of this cRNA coding for the wild-type or mutated channel is carried out at a concentration of 0.3 μg/μl. In the case of coinjection of other cRNAs (for example: CD8-III-IV, III-IV, etc.), these cRNAs are injected at a concentration of 0.1 μg/μl. The injections of III-IV peptide are carried out at a final intracellular concentration of 10 μM. […] Following the cRNA injections, the cells are kept at 16° C. in DNOM medium for a minimum of 4-5 days before continuing with the electrophysiological recordings.
We applied the two-electrode voltage-clamp technique for the recordings of Ba^2+ currents (the Ba^2+ is more permeable than the Ca^2+ through the high-threshold calcium channels and facilitates our analyses). The recordings are carried out with a GeneClamp amplifier from Axon Instruments (Foster City, Calif.). […] The data are analyzed with the pCLAMP software suite version 6.03 (Axon Instruments). […]

[2] = test system: high threshold calcium channels; assay: High-threshold calcium current after expression of the I-II loop in bovine chromaffin cells; type: cell-based; conditions: bovine chromaffin cells transfected with I-II loop coupled to CD8 transmembrane segment and GFP
From the text: (§1) The expression of the I-II loop of the Cav2.1 channel is induced following a cell transfection method (thanks to a transfection agent: lipofectamine, fugene etc.). In order to have the ability to bind the endogenous β sub-units to these cells, we have noted that the ability of this I-II sequence to reduce the expression at the plasma membrane of the endogenous high-threshold calcium channels is facilitated by its coupling to a transmembrane segment. The Inventors have used for their experiments the transmembrane segment of the α chain of the human CD8 receptor, coupled to the amino-terminal part of the I-II loop. In order to facilitate the detection of the transfected cells, the carboxy-terminal part of the I-II loop was coupled to GFP protein (Green Fluorescent Protein) which has the property of green fluorescence (easily detectable in fluorescence microscopy). FIG. 1A illustrates the construction used for these experiments. FIG. 1B illustrates the amino-acid sequence of the transmembrane sequence of the α chain of the CD8 receptor.

[3] = test system: high threshold calcium channels; assay: High-threshold calcium current after expression of the I-II loop in rat cerebellum granular cells; type: cell-based; conditions: rat cerebellum granular cells transfected with I-II loop coupled to CD8 transmembrane segment and GFP
From the text: as §1

[4] = target: T2, III-IV loop of Cav2.1 (Oryctolagus cuniculus, UniProt P27884); assay: Binding of 35S-methionine labelled in vitro translated I-II loop to GST-III-IV fusion protein; parameters: species or system rabbit; conditions: 35S-methionine labelled I-II loop, absence of β sub-unit
T2 construct: This III-IV loop has been expressed and purified as a GST (Glutathione-S-Tranferase) fusion protein; made in house
T2 sequence (P27884 1521-1575): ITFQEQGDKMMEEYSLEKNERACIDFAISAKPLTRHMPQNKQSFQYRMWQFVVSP
From the text: FIG. 2: Binding of the I-II loop of Cav2.1 to different intracellular loops. […] This III-IV loop has been expressed and purified as a GST (Glutathione-S-Tranferase) fusion protein. The I-II protein of the channel has been translated in vitro and labelled by a radioactive amino acid (^35S-methionine) in order to monitor its binding to the GST-III-IV fusion protein.
These two amino acids are therefore indispensable to the binding of the I-II loop to the III-IV loop in the absence of the β sub-unit of the calcium channel.

peptide representing the 40 carboxy-terminal amino acids of the III-IV loop: peptide representing the 40 carboxy-terminal amino acids of the III-IV loop of Cav2.1 (LEKNERACIDFAISAKPLTRHMPQNKQSFQYRMWQFVVSP)
effect on inactivation kinetics of the Cav2.1 channel ([1]; peptide free in the cytoplasm, injected, final intracellular concentration 10 μM): acceleration is similar

III-IV loop: III-IV loop of Cav2.1 expressed coupled in amino-terminal position with the α chain of the human CD8 receptor
effect on inactivation kinetics of the Cav2.1 channel ([1]; III-IV loop associated with the plasma membrane via amino-terminal coupling to α chain of human CD8 receptor, cRNA coinjection): accelerates the inactivation kinetics

B1: I-II loop of the Cav2.1 sub-unit: I-II loop of the Cav2.1 calcium channel sub-unit; in cells coupled to CD8 transmembrane segment and GFP (protein, listed as Oryctolagus cuniculus)
chain: SGEFAKERERVENRRAFLKLRRQQQIERELNGYMEWISKAEEVILAEDETDVEQRHPFDGALRRATIKKSKTDLLHPEEAEDQLADIASVGSPFARASIKSAKLENSSFFHKKERRMRFYIRRMVKTQ
reduction of the high-threshold calcium current [2]: more than 50% | reduction of the high-threshold calcium current [3]: more than 50% | binding to the GST-III-IV fusion protein [4]: binding of I-II is evident
